From US20080118919A1

Biological target: B42 activation domain-EE34 prey fusion protein (yeast, pJG4-5)
Experiment: cell-based or functional assay

λ cI-RR34 bait fusion protein (from UniProt P03034 1-237)
β-glucuronidase reporter activity with MU-gluc substrate, combination 6 relative to combination 5, yeast two-hybrid (fold higher than combination 5): 10
